# In PMC3380618:
# B1: FRET 14 bp GATATC (dsDNA)
# DNA 1: AGAAGATATCTTGA
# DNA 2: TCAAGATATCTTCT
# B2: PMe-2 racemic (dsDNA)
# DNA 1: TGTGTTGTAGGATATCCTACAGGT
# DNA 2: ACCTGTAGGATATCCTACAACACA
# modifications: racemic Rp,Sp methylphosphonate at P-2, symmetric in both strands
# Experiments:
# [1] = biological target: EcoRV endonuclease wild type (UniProt P04390 2-245); experiment: FRET
# EcoRV K119A = EcoRV K119A (UniProt P04390 2-245, K119A); experiment: filter binding
Binder,binding result [1],Kd (EcoRV K119A) [pM]
B1,binds,–
B2,–,1.1
